# Test results reported in US20160136234A1.
# Tests used:
# Experiment in all cases: cell-based or functional assay
# Fer (h) (human) = Fer (h) (human) (UniProt P16591)
# NEK2 (h) (human) = target: T1, NEK2 (h) (human) (UniProt P51955)
# T1 sequence (looked up): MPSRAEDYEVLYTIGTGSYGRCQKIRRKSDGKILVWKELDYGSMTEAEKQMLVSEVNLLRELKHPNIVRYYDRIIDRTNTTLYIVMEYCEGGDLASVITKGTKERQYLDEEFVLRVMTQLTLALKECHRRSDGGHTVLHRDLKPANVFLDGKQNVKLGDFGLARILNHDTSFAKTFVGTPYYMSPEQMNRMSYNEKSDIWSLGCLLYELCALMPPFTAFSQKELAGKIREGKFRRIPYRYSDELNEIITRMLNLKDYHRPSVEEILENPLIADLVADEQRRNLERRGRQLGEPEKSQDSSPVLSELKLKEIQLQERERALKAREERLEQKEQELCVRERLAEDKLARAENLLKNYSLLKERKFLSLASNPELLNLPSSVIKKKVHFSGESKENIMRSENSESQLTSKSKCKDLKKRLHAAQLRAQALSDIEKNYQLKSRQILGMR
# ALK (h) (human) = ALK (h) (human) (UniProt Q9UM73)
# HIPK2 (h) (human) = HIPK2 (h) (human) (UniProt Q9H2X6)
# MKK7β (h) (human) = MKK7β (h) (human) (UniProt O14733)
# ZIPK (h) (human) = ZIPK (h) (human) (UniProt O43293)
# Flt3(D835Y) (h) (human) = target: T2, Flt3(D835Y) (h) (human) (UniProt P36888)
# T2 sequence (looked up): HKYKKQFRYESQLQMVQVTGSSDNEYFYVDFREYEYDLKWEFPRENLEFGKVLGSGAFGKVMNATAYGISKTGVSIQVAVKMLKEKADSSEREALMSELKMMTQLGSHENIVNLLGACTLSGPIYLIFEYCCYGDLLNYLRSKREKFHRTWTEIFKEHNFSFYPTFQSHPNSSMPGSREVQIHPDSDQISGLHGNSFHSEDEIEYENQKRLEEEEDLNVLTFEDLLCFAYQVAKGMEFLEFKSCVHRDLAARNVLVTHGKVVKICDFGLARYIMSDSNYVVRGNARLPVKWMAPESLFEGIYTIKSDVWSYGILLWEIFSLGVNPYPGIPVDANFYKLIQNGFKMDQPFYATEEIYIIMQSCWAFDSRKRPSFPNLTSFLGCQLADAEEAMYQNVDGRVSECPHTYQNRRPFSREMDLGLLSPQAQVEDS
# Hck (h) (human) = Hck (h) (human) (UniProt P08631)
# Fms(Y969C) (h) (human) = target: T3, Fms(Y969C) (h) (human) (UniProt P07333)
# T3 sequence (looked up): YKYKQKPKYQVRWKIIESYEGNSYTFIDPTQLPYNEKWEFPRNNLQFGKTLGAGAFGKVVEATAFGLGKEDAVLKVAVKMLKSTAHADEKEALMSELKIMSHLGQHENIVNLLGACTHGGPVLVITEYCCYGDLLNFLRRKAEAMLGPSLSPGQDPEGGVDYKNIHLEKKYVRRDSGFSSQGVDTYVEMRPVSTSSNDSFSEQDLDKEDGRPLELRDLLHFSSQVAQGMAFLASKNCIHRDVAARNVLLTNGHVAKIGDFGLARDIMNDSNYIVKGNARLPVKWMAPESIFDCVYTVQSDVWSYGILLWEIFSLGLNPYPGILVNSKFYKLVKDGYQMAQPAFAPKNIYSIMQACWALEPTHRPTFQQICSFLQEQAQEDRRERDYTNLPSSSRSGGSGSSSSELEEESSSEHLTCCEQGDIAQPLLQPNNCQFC
# EphA5 (h) (human) = target: T4, EphA5 (h) (human) (UniProt P54756)
# T4 sequence (looked up): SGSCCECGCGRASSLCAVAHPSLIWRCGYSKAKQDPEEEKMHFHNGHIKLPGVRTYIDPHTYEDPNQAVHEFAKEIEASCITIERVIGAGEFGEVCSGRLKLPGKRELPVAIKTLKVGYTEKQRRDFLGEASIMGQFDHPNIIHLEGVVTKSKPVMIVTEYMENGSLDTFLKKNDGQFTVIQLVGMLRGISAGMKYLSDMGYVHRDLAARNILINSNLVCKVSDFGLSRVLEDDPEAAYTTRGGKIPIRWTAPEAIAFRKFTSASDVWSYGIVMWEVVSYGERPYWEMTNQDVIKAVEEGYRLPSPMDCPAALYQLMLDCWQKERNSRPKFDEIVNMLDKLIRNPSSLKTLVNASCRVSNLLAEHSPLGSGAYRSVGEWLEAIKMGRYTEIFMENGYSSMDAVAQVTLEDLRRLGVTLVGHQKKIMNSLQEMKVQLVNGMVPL
# CaMKIIγ (h) (human) = CaMKIIγ (h) (human) (UniProt Q13555)
# Chain of CaMKIIγ (h) (human) (Q13555 whole entry): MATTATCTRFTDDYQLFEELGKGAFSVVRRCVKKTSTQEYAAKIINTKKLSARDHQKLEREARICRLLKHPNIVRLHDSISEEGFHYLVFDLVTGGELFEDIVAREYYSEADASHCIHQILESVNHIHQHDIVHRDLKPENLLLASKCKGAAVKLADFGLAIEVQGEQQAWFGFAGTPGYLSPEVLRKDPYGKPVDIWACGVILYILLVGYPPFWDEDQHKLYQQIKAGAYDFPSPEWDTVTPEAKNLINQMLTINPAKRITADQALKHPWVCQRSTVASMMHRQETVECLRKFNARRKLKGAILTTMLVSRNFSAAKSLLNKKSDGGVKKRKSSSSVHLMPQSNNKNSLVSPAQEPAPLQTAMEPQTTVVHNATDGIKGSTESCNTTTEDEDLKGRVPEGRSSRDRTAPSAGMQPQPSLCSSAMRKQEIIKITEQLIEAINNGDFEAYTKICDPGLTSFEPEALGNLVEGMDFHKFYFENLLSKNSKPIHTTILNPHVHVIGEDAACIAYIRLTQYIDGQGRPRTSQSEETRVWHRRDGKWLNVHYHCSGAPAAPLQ
# [1] = target: CDK6/cyclinD3 (h) (human) (UniProt Q00534)
# Chain of CDK6/cyclinD3 (h) (human) (Q00534 whole entry, chain 1 of 2): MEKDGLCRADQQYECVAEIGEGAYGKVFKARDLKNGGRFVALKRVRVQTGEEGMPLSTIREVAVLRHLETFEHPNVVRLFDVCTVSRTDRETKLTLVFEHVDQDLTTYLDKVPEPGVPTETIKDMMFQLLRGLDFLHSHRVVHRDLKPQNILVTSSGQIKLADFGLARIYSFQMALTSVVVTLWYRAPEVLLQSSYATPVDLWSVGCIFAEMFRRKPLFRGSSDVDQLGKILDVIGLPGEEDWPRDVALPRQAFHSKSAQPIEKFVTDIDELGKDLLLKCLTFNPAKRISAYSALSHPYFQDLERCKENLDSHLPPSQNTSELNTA
# Chain of CDK6/cyclinD3 (h) (human) (P30281 whole entry, chain 2 of 2, further chain): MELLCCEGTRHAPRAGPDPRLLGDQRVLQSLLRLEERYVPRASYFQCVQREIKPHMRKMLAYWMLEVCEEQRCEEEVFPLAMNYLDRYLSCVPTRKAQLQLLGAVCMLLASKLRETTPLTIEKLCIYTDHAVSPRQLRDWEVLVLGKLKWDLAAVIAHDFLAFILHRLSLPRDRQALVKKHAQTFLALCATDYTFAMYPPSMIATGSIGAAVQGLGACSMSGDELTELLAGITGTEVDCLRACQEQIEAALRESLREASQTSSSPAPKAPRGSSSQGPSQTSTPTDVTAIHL
# CDK3/cyclinE (h) (human) = CDK3/cyclinE (h) (human) (UniProt Q00526)
# Syk (h) (human) = Syk (h) (human) (UniProt P43405)
# Met(Y1248C) (h) (human) = Met(Y1248C) (h) (human) (UniProt P08581)
# Abl (M351T) (h) (human) = Abl (M351T) (h) (human) (UniProt P00519)
# Chain of Abl (M351T) (h) (human) (P00519 27-1130 M351T limits assumed): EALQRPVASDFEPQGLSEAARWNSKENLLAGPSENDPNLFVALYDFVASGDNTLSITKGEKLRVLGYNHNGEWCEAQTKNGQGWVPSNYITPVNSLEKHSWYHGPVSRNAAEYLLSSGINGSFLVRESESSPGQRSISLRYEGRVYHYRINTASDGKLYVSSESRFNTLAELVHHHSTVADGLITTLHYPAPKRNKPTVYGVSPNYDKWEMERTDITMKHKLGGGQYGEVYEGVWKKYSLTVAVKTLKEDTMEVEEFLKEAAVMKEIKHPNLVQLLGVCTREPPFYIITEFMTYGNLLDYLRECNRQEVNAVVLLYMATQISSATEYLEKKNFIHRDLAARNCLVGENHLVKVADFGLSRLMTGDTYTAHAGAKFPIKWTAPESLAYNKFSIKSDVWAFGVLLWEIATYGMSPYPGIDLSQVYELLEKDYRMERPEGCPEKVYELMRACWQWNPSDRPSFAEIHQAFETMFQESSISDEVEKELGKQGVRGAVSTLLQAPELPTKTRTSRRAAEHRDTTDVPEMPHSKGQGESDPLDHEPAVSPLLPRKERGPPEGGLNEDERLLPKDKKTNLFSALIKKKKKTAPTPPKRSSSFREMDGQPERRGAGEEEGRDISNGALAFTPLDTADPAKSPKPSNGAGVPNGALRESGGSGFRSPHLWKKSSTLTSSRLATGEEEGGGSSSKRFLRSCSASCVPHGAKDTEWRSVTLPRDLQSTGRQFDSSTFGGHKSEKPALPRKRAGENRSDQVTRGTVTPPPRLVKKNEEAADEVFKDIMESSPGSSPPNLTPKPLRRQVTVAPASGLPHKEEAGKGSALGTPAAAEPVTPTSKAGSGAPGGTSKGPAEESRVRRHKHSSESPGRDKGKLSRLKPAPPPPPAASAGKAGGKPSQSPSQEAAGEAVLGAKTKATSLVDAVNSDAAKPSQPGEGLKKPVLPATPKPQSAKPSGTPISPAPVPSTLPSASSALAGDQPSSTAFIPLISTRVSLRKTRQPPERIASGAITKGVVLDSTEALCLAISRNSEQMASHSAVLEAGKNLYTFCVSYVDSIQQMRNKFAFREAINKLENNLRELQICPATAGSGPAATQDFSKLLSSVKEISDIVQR
# JAK2 (h) (human) = JAK2 (h) (human) (UniProt O60674)
# PAK3 (h) (human) = PAK3 (h) (human) (UniProt O75914)
# TAK1 (h) (human) = target: T5, TAK1 (h) (human) (UniProt O43318)
# T5 sequence (looked up): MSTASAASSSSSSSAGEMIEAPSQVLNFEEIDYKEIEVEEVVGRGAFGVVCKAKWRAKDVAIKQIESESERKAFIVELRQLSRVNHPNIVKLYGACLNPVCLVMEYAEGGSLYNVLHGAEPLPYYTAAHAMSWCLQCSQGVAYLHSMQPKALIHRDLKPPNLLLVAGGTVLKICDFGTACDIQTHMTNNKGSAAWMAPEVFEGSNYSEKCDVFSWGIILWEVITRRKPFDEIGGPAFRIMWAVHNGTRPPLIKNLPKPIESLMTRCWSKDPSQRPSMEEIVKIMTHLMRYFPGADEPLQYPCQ
# Pyk2 (h) (human) = Pyk2 (h) (human) (UniProt Q14289)
# DAPK1 (h) (human) = DAPK1 (h) (human) (UniProt P53355)
substance,measurement,setting,value
MMI-0300 (peptide),% activity at 100 µM,Fer (h) (human),130%
same,% activity at 100 µM,NEK2 (h) (human),78%
same,% activity at 100 µM,ALK (h) (human),19%
same,% activity at 100 µM,HIPK2 (h) (human),73%
same,% activity at 100 µM,MKK7β (h) (human),100%
same,% activity at 100 µM,ZIPK (h) (human),28%
same,% activity at 100 µM,Flt3(D835Y) (h) (human),80%
same,% activity at 100 µM,Hck (h) (human),72%
same,% activity at 100 µM,Fms(Y969C) (h) (human),72%
same,% activity at 100 µM,EphA5 (h) (human),18%
same,% activity at 100 µM,CaMKIIγ (h) (human),5%
same,% activity at 100 µM,[1],86%
same,% activity at 100 µM,CDK3/cyclinE (h) (human),94%
same,% activity at 100 µM,Syk (h) (human),24%
same,% activity at 100 µM,Met(Y1248C) (h) (human),84%
same,% activity at 100 µM,Abl (M351T) (h) (human),90%
same,% activity at 100 µM,JAK2 (h) (human),133%
same,% activity at 100 µM,PAK3 (h) (human),140%
same,% activity at 100 µM,TAK1 (h) (human),122%
same,% activity at 100 µM,Pyk2 (h) (human),47%
same,% activity at 100 µM,DAPK1 (h) (human),46%
